Assay results from patent US20140023646A1.

Columns and labels:
[1] = target: KIR receptors on NK cells (all inhibitory KIR2DL receptors); assay: cell-based or functional assay
[2] = target: recombinant KIR 2DL3 protein (entire extracellular domain, produced in E. coli, refolded) (human) (UniProt P43628); assay: SPR (Biacore), KIR 2DL3 immobilized on CM5 chip, soluble antibody as analyte
[3] = target: recombinant KIR 2DL1 protein (entire extracellular domain, produced in E. coli, refolded) (human) (UniProt P43626); assay: SPR (Biacore), KIR 2DL1 immobilized on CM5 chip, soluble antibody as analyte

| increased expression of CD107a on NK cells [1] [%] | Kd [2] [nM] | Kd [3] [nM] | Substance |
| --- | --- | --- | --- |
| 0.5 to 13.6 | – | – | human anti-KIR monoclonal antibody 1-7F9 |
| – | 2 | 10.9 | monoclonal antibody DF200 produced by hybridoma DF200 |
